The numbers were not newly measured in PMC5010500 (Journal of molecular biology, 2016), which cites them from elsewhere.

The target of this series is Keap1 Kelch domain (Homo sapiens) (UniProt Q14145). Description: ITC. The note with it: cited from earlier work.
Keap1 Kelch domain (Homo sapiens), sequence (Q14145 321-609): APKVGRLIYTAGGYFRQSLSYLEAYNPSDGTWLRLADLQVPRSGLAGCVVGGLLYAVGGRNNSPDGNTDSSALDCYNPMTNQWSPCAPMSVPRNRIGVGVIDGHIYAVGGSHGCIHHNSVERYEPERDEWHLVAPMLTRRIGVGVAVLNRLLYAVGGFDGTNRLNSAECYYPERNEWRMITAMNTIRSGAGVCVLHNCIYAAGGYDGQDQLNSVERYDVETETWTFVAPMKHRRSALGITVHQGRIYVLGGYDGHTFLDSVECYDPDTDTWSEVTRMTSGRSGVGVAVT

mVP24, sequence (P35256 whole entry): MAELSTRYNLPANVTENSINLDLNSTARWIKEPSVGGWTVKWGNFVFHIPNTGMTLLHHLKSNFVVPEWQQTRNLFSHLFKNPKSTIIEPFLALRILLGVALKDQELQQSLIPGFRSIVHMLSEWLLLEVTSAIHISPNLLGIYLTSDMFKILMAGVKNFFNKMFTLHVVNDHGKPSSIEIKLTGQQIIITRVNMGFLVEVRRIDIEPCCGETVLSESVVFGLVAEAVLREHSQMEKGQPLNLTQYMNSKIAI

A word on the Kd: it is the equilibrium constant for the complex coming apart. For the substance mVP24 (from UniProt P35256), the Kd is 160 nM.
